Legend:
[1] = target: T1, hu4-1BB-SNAP Tb-labeled expressed on transfected Hek cells (human, UniProt Q07011 24-255, Tb (terbium) label on the SNAP tag); assay: TR-FRET (TagLite) competition against d2-labeled 20H4.9 IgG1 (0.6 nM), after 4 h
T1 construct: SNAP-tag fusion of human 4-1BB; also called Tb hu4-1BB-SNAP

[2] = target: T2, human FAP on NIH/3T3-huFAP clone 19 cells (human, UniProt Q12884 1-760); assay: flow cytometry on NIH/3T3-huFAP clone 19 cells
T2 construct: NIH/3T3 cells transfected with a plasmid encoding human FAP
Experimental: (§1) Plates were incubated for 30 minutes at 4° C. and washed once with 200 μL 4° C. cold DPBS buffer. […] Cells were washed twice with 200 μL 4° C. DPBS buffer and then resuspended in 50 μL/well DPBS containing 1% Formaldehyde for fixation. The same or the next day cells were resuspended in 100 μL FACS-buffer and acquired using MACSQuant Analyzer 10 (Miltenyi Biotec).

[3] = target: T3, human 4-1BB (CD137) on Jurkat-hu4-1BB-NFκB-luc2 reporter cells (human, UniProt Q07011 24-255); assay: cell-based or functional assay
[4] = target: T3, human 4-1BB (CD137) on …; assay: cell-based or functional assay; parameters: AUC of NFκB-luciferase activation curve, no FAP+ cells / AUC of NFκB-luciferase activation curve, with WM-266-4 cells: unit not given beside the values
[5] = target: T2, human FAP on NIH/3T3-huFAP clone 19 …; assay: flow cytometry on NIH/3T3-huFAP clone 19 cells; remark: listed apart in the source
Experimental: as §1

[6] = target: T3, human 4-1BB (CD137) on …; assay: flow cytometry on Jurkat-hu4-1BB-NFκB-luc2 cells
Experimental: Plates were incubated for 30 minutes at 4° C. and washed once with 200 μL 4° C. cold DPBS buffer. […] Cells were washed twice with 200 μL 4° C. DPBS buffer and then resuspended in 50 μL/well DPBS containing 1% Formaldehyde for fixation. The same or the next day cells were resuspended in 100 μL FACS-buffer and acquired using MACSQuant Analyzer X (Miltenyi Biotec).

[7] = target: T4, cynomolgus monkey CEACAM5 on CHO-k1-cynoCEACAM5 clone 8 cells (cynomolgus monkey); assay: flow cytometry on CHO-k1-cynoCEACAM5 clone 8; parameters: unit not given beside the values
T4 construct: whole, on cells

[8] = target: T3, human 4-1BB (CD137) on …; assay: cell-based or functional assay; parameters: AUC of NFκB-luciferase activation curve, no CEA+ cells / AUC of NFκB-luciferase activation curve, with CHO-k1-cynoCEACAM5 clone 8: unit not given beside the values
[9] = target: T3, human 4-1BB (CD137) on …; assay: cell-based or functional assay; remark: listed apart in the source
[10] = target: T3, human 4-1BB (CD137) on …; assay: cell-based or functional assay; remark: listed apart in the source

B1: 4-1BB (20H4.9)/FAP (4B9) P329GLALA IgG1 2+1 VH/VL (C-terminal) (bispecific antibody)
heavy 1: QVQLQQWGAGLLKPSETLSLTCAVYGGSFSGYYWSWIRQSPEKGLEWIGEINHGGYVTYNPSLESRVTISVDTSKNQFSLKLSSVTAADTAVYYCARDYGPGNYDWYFDLWGRGTLVTVSSASTKGPSVFPLAPSSKSTSGGTAALGCLVKDYFPEPVTVSWNSGALTSGVHTFPAVLQSSGLYSLSSVVTVPSSSLGTQTYICNVNHKPSNTKVDKKVEPKSCDKTHTCPPCPAPEAAGGPSVFLFPPKPKDTLMISRTPEVTCVVVDVSHEDPEVKFNWYVDGVEVHNAKTKPREEQYNSTYRVVSVLTVLHQDWLNGKEYKCKVSNKALGAPIEKTISKAKGQPREPQVCTLPPSRDELTKNQVSLSCAVKGFYPSDIAVEWESNGQPENNYKTTPPVLDSDGSFFLVSKLTVDKSRWQQGNVFSCSVMHEALHNHYTQKSLSLSPGGGGGSGGGGSGGGGSGGGGSEVQLLESGGGLVQPGGSLRLSCAASGFTFSSYAMSWVRQAPGKGLEWVSAIIGSGASTYYADSVKGRFTISRDNSKNTLYLQMNSLRAEDTAVYYCAKGWFGGFNYWGQGTLVTVSS
heavy 2: not shown
light: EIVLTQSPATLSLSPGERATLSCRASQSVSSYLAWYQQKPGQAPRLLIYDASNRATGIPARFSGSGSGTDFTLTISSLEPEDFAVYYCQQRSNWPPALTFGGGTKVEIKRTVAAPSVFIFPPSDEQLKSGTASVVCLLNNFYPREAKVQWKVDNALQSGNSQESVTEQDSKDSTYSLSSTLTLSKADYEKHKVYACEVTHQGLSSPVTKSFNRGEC
notes: Control format: FAP VH and VL fused to the C-termini of the heavy chains; also called 2+1 VH/VL anti-4-1BB (20H4.9)×anti-FAP (4B9) huIgG1 P329GLALA; 2+1 (C-terminal)
IC50 [1]: 2.5 nM | EC50 [2]: 3.94 nM | EC50 of NFκB-luciferase activation curve, with NIH/3T3-huFAP clone 19 cells [3]: 0.008 nM | EC50 of NFκB-luciferase activation curve, with WM-266-4 cells [3]: 0.028 nM | AUC of NFκB-luciferase activation curve, no FAP+ cells [4]: 4360 | AUC of NFκB-luciferase activation curve, with NIH/3T3-huFAP clone 19 cells [4]: 95100 | AUC of NFκB-luciferase activation curve, with WM-266-4 cells [4]: 30900 | AUC [5]: 21200

B2: 2+1 H2H 4-1BB (20H4.9)/FAP (4B9) P329GLALA IgG1 (bispecific antibody)
heavy 1: QVQLQQWGAGLLKPSETLSLTCAVYGGSFSGYYWSWIRQSPEKGLEWIGEINHGGYVTYNPSLESRVTISVDTSKNQFSLKLSSVTAADTAVYYCARDYGPGNYDWYFDLWGRGTLVTVSSASTKGPSVFPLAPSSKSTSGGTAALGCLVEDYFPEPVTVSWNSGALTSGVHTFPAVLQSSGLYSLSSVVTVPSSSLGTQTYICNVNHKPSNTKVDEKVEPKSCDKTHTCPPCPAPEAAGGPSVFLFPPKPKDTLMISRTPEVTCVVVDVSHEDPEVKFNWYVDGVEVHNAKTKPREEQYNSTYRVVSVLTVLHQDWLNGKEYKCKVSNKALGAPIEKTISKAKGQPREPQVCTLPPSRDELTKNQVSLSCAVKGFYPSDIAVEWESNGQPENNYKTTPPVLDSDGSFFLVSKLTVDKSRWQQGNVFSCSVMHEALHNHYTQKSLSLSP
heavy 2: not shown
light 1: not shown
light 2: EVQLLESGGGLVQPGGSLRLSCAASGFTFSSYAMSWVRQAPGKGLEWVSAIIGSGASTYYADSVKGRFTISRDNSKNTLYLQMNSLRAEDTAVYYCAKGWFGGFNYWGQGTLVTVSSASVAAPSVFIFPPSDEQLKSGTASVVCLLNNFYPREAKVQWKVDNALQSGNSQESVTEQDSKDSTYSLSSTLTLSKADYEKHKVYACEVTHQGLSSPVTKSFNRGEC
notes: Bivalent for 4-1BB, monovalent for FAP (cross-Fab fused head to head); also called 4-1BB (20H.9)×FAP 2+1 H2H; anti-4-1BB (20H4.9)×anti-FAP (4B9) 2+1 H2H huIgG1 P329GLALA
IC50 [1]: 1.9 nM | EC50 [2]: 1.81 nM | EC50 of NFκB-luciferase activation curve, with NIH/3T3-huFAP clone 19 cells [3]: 0.02 nM | EC50 of NFκB-luciferase activation curve, with WM-266-4 cells [3]: 0.06 nM | EC50 [6]: 0.062 nM | AUC of NFκB-luciferase activation curve, no FAP+ cells [4]: 715 | AUC of NFκB-luciferase activation curve, with NIH/3T3-huFAP clone 19 cells [4]: 109000 | AUC of NFκB-luciferase activation curve, with WM-266-4 cells [4]: 49400 | AUC [5]: 40200

B3: 2+1 H2H 4-1BB (20H4.9)/CEA (A5H1EL1D) huIgG1 P329GLALA (bispecific antibody)
heavy 1: QVQLQQWGAGLLKPSETLSLTCAVYGGSFSGYYWSWIRQSPEKGLEWIGEINHGGYVTYNPSLESRVTISVDTSKNQFSLKLSSVTAADTAVYYCARDYGPGNYDWYFDLWGRGTLVTVSSASTKGPSVFPLAPSSKSTSGGTAALGCLVEDYFPEPVTVSWNSGALTSGVHTFPAVLQSSGLYSLSSVVTVPSSSLGTQTYICNVNHKPSNTKVDEKVEPKSCDKTHTCPPCPAPEAAGGPSVFLFPPKPKDTLMISRTPEVTCVVVDVSHEDPEVKFNWYVDGVEVHNAKTKPREEQYNSTYRVVSVLTVLHQDWLNGKEYKCKVSNKALGAPIEKTISKAKGQPREPQVCTLPPSRDELTKNQVSLSCAVKGFYPSDIAVEWESNGQPENNYKTTPPVLDSDGSFFLVSKLTVDKSRWQQGNVFSCSVMHEALHNHYTQKSLSLSP
heavy 2: not shown
light 1: not shown
light 2: EVQLLESGGGLVQPGGSLRLSCAASGFTFTDYYMNWVRQAPGKGLEWLGFIGNKANAYTTEYSASVKGRFTISRDKSKNTLYLQMNSLRAEDTATYYCTRDRGLRFYFDYWGQGTTVTVSSASVAAPSVFIFPPSDEQLKSGTASVVCLLNNFYPREAKVQWKVDNALQSGNSQESVTEQDSKDSTYSLSSTLTLSKADYEKHKVYACEVTHQGLSSPVTKSFNRGEC
notes: also called 2+1 H2H anti-4-1BB (20H4.9)×anti-CEA (A5H1EL1D) huIgG1 P329GLALA
AUC [7]: 614 | AUC of NFκB-luciferase activation curve, no CEA+ cells [8]: 1130 | AUC of NFκB-luciferase activation curve, with CHO-k1-cynoCEACAM5 clone 8 [8]: 26500 | AUC of NFκB-luciferase activation curve, with CHO-k1-humanCEACAM5 clone 11 [8]: 58100 | AUC of NFκB-luciferase activation curve, with CHO-k1-humanCEACAM5 clone 12 [8]: 56600 | EC50 of NFκB-luciferase activation curve, no CEA+ cells [9]: 0.09 nM | EC50 of NFκB-luciferase activation curve, with CHO-k1-cynoCEACAM5 clone 8 [9]: 0.1 nM | EC50 of NFκB-luciferase activation curve, with CHO-k1-humanCEACAM5 clone 11 [9]: 0.05 nM | EC50 of NFκB-luciferase activation curve, with CHO-k1-humanCEACAM5 clone 12 [9]: 0.04 nM

B4: 2+1 H2H 4-1BB (20H4.9)/PD-L1 human IgG1 PGLALA (bispecific antibody)
heavy 1: QVQLQQWGAGLLKPSETLSLTCAVYGGSFSGYYWSWIRQSPEKGLEWIGEINHGGYVTYNPSLESRVTISVDTSKNQFSLKLSSVTAADTAVYYCARDYGPGNYDWYFDLWGRGTLVTVSSASTKGPSVFPLAPSSKSTSGGTAALGCLVEDYFPEPVTVSWNSGALTSGVHTFPAVLQSSGLYSLSSVVTVPSSSLGTQTYICNVNHKPSNTKVDEKVEPKSCDKTHTCPPCPAPEAAGGPSVFLFPPKPKDTLMISRTPEVTCVVVDVSHEDPEVKFNWYVDGVEVHNAKTKPREEQYNSTYRVVSVLTVLHQDWLNGKEYKCKVSNKALGAPIEKTISKAKGQPREPQVCTLPPSRDELTKNQVSLSCAVKGFYPSDIAVEWESNGQPENNYKTTPPVLDSDGSFFLVSKLTVDKSRWQQGNVFSCSVMHEALHNHYTQKSLSLSP
heavy 2: not shown
light 1: not shown
light 2: not shown
EC50 of NFκB-luciferase activation curve, with MKN45-huPD-L1 cells [10]: 0.04 nM

B5: 2+1 H2H 4-1BB (20H4.9)/CEA (MFE23) huIgG1 P329GLALA (bispecific antibody)
heavy 1: QVQLQQWGAGLLKPSETLSLTCAVYGGSFSGYYWSWIRQSPEKGLEWIGEINHGGYVTYNPSLESRVTISVDTSKNQFSLKLSSVTAADTAVYYCARDYGPGNYDWYFDLWGRGTLVTVSSASTKGPSVFPLAPSSKSTSGGTAALGCLVEDYFPEPVTVSWNSGALTSGVHTFPAVLQSSGLYSLSSVVTVPSSSLGTQTYICNVNHKPSNTKVDEKVEPKSCDKTHTCPPCPAPEAAGGPSVFLFPPKPKDTLMISRTPEVTCVVVDVSHEDPEVKFNWYVDGVEVHNAKTKPREEQYNSTYRVVSVLTVLHQDWLNGKEYKCKVSNKALGAPIEKTISKAKGQPREPQVCTLPPSRDELTKNQVSLSCAVKGFYPSDIAVEWESNGQPENNYKTTPPVLDSDGSFFLVSKLTVDKSRWQQGNVFSCSVMHEALHNHYTQKSLSLSP
heavy 2: not shown
light 1: not shown
light 2: QVKLQQSGAELVRSGTSVKLSCTASGFNIKDSYMHWLRQGPEQGLEWIGWIDPENGDTEYAPKFQGKATFTTDTSSNTAYLQLSSLTSEDTAVYYCNEGTPTGPYYFDYWGQGTTVTVSSASVAAPSVFIFPPSDEQLKSGTASVVCLLNNFYPREAKVQWKVDNALQSGNSQESVTEQDSKDSTYSLSSTLTLSKADYEKHKVYACEVTHQGLSSPVTKSFNRGEC
notes: also called 2+1 H2H anti-4-1BB (20H4.9)×anti-CEA (MFE23) huIgG1 P329GLALA
AUC [7]: 169 | AUC of NFκB-luciferase activation curve, no CEA+ cells [8]: 774 | AUC of NFκB-luciferase activation curve, with CHO-k1-cynoCEACAM5 clone 8 [8]: 802 | AUC of NFκB-luciferase activation curve, with CHO-k1-humanCEACAM5 clone 11 [8]: 76200 | AUC of NFκB-luciferase activation curve, with CHO-k1-humanCEACAM5 clone 12 [8]: 72300 | EC50 of NFκB-luciferase activation curve, no CEA+ cells [9]: 0.1 nM | EC50 of NFκB-luciferase activation curve, with CHO-k1-cynoCEACAM5 clone 8 [9]: 0.14 nM | EC50 of NFκB-luciferase activation curve, with CHO-k1-humanCEACAM5 clone 11 [9]: 0.02 nM | EC50 of NFκB-luciferase activation curve, with CHO-k1-humanCEACAM5 clone 12 [9]: 0.02 nM

B6: Anti-FAP (4B9) huIgG1 P329GLALA (antibody, V domains shown)
VH: EVQLLESGGGLVQPGGSLRLSCAASGFTFSSYAMSWVRQAPGKGLEWVSAIIGSGASTYYADSVKGRFTISRDNSKNTLYLQMNSLRAEDTAVYYCAKGWFGGFNYWGQGTLVTVSS
VL: EIVLTQSPGTLSLSPGERATLSCRASQSVTSSYLAWYQQKPGQAPRLLINVGSRRATGIPDRFSGSGSGTDFTLTISRLEPEDFAVYYCQQGIMLPPTFGQGTKVEIK
AUC of NFκB-luciferase activation curve, no FAP+ cells [4]: 181 | AUC of NFκB-luciferase activation curve, with NIH/3T3-huFAP clone 19 cells [4]: 195 | AUC of NFκB-luciferase activation curve, with WM-266-4 cells [4]: 191

From US20210253724A1 (Hoffmann-La Roche, published 2021)
